The data set concerns the target CD36 on human monocytes / monocyte membrane extract (Homo sapiens, UniProt P16671 1-472). Description: pull-down with mass spectrometry.

CD36 on human monocytes / monocyte membrane extract, sequence (P16671 whole entry): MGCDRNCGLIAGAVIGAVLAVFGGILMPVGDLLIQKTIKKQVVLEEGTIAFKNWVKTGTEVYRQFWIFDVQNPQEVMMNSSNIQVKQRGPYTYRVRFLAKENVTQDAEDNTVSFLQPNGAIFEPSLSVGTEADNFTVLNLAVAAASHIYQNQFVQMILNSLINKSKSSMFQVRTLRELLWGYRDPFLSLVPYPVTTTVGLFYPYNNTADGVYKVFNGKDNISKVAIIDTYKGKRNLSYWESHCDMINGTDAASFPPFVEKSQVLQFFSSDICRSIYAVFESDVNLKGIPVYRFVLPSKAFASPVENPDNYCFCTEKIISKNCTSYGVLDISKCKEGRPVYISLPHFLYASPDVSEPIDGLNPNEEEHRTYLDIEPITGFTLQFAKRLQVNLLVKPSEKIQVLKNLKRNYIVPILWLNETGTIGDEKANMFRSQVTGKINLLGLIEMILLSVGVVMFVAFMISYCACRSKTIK

B1: CD36Apt (Mono.A2) (ssDNA)
DNA: ATCCAGAGTGACGCAGCAGAAGAGTAGATGAAACGTTTTTTCGCCCGATAAAAGGGACGTGCGTCAGACATGGACACGGTGGCTTAGT
On to B1, for which the binding result is reported as “binds”.

For the origin of these results see article PMC12557302.
